Laboratory results from paper PMC5539093, “Functional Characterization of Four Putative δ^1-Pyrroline-5-Carboxylate Reductases from Bacillus subtilis” (Frontiers in Microbiology, 2017).

How the values were obtained:
ProI = biological target: T1, ProI (Bacillus subtilis, UniProt P54552); experiment: NAD(P)H oxidation at […] nm; type: biochemical
T1 construct: full-length; pMCSG68, N-terminal His6-TEV tag removed; E. coli BL21 Gold; homodimer by SAXS

ProH = biological target: T2, ProH (Bacillus subtilis, UniProt P0CI77); experiment: NAD(P)H oxidation at […] nm; type: biochemical
T2 construct: full-length; pMCSG68, N-terminal His6-TEV tag removed; E. coli BL21 Gold; homodimer by SAXS

ComER = biological target: T3, ComER (Bacillus subtilis, UniProt P39696); experiment: NAD(P)H oxidation at […] nm; type: biochemical
T3 construct: full-length; pMCSG68, N-terminal His6-TEV tag removed; E. coli BL21 Gold; monomer by SAXS

ProG = biological target: T4, ProG (Bacillus subtilis, UniProt Q00777); experiment: NAD(P)H oxidation at […] nm; type: biochemical
T4 construct: full-length; pMCSG68, N-terminal His6-TEV tag removed; E. coli BL21 Gold; homodimer by SAXS

purified protein [1] = substrate: NC(=O)C1=CN([C@@H]2O[C@H](COP(=O)(O)OP(=O)(O)OC[C@H]3O[C@@H](n4cnc5c(N)ncnc54)[C@H](OP(=O)(O)O)[C@@H]3O)[C@@H](O)[C@H]2O)C=CC1; experiment: purified protein; type: biochemical, Bacillus subtilis; details: 1 mM L-P5C, 20 mM Tris-HCl pH 7.0, 30°C, kcat per monomer
purified protein [2] = substrate: O=C(O)[C@@H]1CCC=N1; experiment: purified protein; type: biochemical, Bacillus subtilis; details: 0.5 mM NADPH, 20 mM Tris-HCl pH 7.0, 30°C
[3] = biological target: the molecule itself; experiment: small-angle X-ray scattering (SAXS) in line with SEC; each native protein at 5 mg mL^-1 loaded onto a Superdex 200 column in 20 mM HEPES pH 8.0, 150 mM NaCl, 2 mM TCEP, routed into the flow cell; oligomeric state from mass, Rg, Dmax and ab initio envelope
purified protein [4] = substrate: NC(=O)C1=CN([C@@H]2O[C@H](COP(=O)(O)OP(=O)(O)OC[C@H]3O[C@@H](n4cnc5c(N)ncnc54)[C@H](O)[C@@H]3O)[C@@H](O)[C@H]2O)C=CC1; experiment: purified protein; type: biochemical, Bacillus subtilis; details: 1 mM L-P5C, 20 mM Tris-HCl pH 7.0, 30°C

| Molecule | IC50 (ProH) | Km (purified protein [1]) | kcat (purified protein [1]) | kcat/Km (purified protein [1]) | stoichiometry N [3] | further results |
| --- | --- | --- | --- | --- | --- | --- |
| NC(=O)c1ccc[n+]([C@@H]2O[C@H](COP(=O)(O)OP(=O)(O)OC[C@H]3O[C@@H](n4cnc5c(N)ncnc54)[C@H](O)[C@@H]3O)[C@@H](O)[C@H]2O)c1 [NAD^+] | 44.5 ± 11.6 mM |  |  |  |  | IC50 (ProI): 6.22 ± 0.6 mM; IC50 (ComER): 29.7 ± 3.7 mM |
| NC(=O)c1ccc[n+]([C@@H]2O[C@H](COP(=O)(O)OP(=O)(O)OC[C@H]3O[C@@H](n4cnc5c(N)ncnc54)[C@H](OP(=O)(O)O)[C@@H]3O)[C@@H](O)[C@H]2O)c1 [NADP^+] | 0.66 ± 0.1 mM |  |  |  |  | IC50 (ProG): 0.23 ± 0.03 mM; IC50 (ProI): 0.34 ± 0.04 mM; IC50 (ComER): 0.48 ± 0.07 mM |
| O=C(O)[C@@H]1CCCN1 [proline] | 41.4 ± 4.2 mM |  |  |  |  | IC50 (ProG): 22.3 ± 2.1 mM |
| ProG, putative δ1-pyrroline-5-carboxylate (P5C) reductase from Bacillus subtilis (enzyme, Bacillus subtilis strain 168, UniProt Q00777 1-272, looked up, ProG, putative P5C reductase, Bacillus subtilis strain 168; calculated mass 30.20 kDa; Cloned in pMCSG68 (His6 tag and TEV site at the N-terminus); also called P5C reductase ProG; source: E. coli BL21 Gold, purified (Ni-NTA, TEV cleavage, second Ni-NTA, SEC on Superdex 200); not shown: His6, N-terminal, cleaved) MEQIGLIGYGSMADMIARQLLKHEQIKENELFIETRTKGERLRALMSDYPNVSADPLENWANTCQLILICVPPLHVIETMRRLYPYVNRNTHIVSIAAGVPLRLLEAETEAGISRVIPAITSEAEAGISLVVHSEALAAEKKERLNELLSVFSRVREIKESNLDVASNLTSSAPGFIAAIFEELALSAVRNSSLSKEEAFDFLIHSLYGTGKMLIEKNMSFEETLERVATKGGITGEGAEVIHASVPDVFDEVFERTLRKYELLTEQVGKQT |  | 232 ± 18 µM | 19 s⁻¹ | 84000 M⁻¹ s⁻¹ | 2 | Km (purified protein [2]): 64.9 ± 8.1 µM |
| ComER (Bacillus subtilis subsp. subtilis str. 168) (protein, full-length; pMCSG68, N-terminal His6-TEV tag removed; E. coli BL21 Gold; monomer by SAXS) MKIGFIGTGNMGTILIESFIESKAADPSNMTITNRTIEKALHIKNRYNSINVTESLEKLVSENEMIFICVKPLDIYPLLARALPYLRKDHILISITSPVQTEQLEQYVPCQVARVIPSITNRALAGVSLVTFGTSCGESAKAKINELMQHISHPLQIESDITRVASDIVSCGPAFMSYLIQRFIDAAVSETSVSKQDAILMCKEMLVGMGKLLETELYTLPALQEKVCVKGGVTGEGIKALESGVQDMFHRVFQNTHMKYEEDISAVKKQFHV |  | 1.2 ± 0.4 µM | 0.09 s⁻¹ | 75000 M⁻¹ s⁻¹ |  | Km (purified protein [4]; kcat per monomer): 226 ± 14 µM; kcat (purified protein [4]; kcat per monomer): 0.06 s⁻¹; kcat/Km (purified protein [4]; kcat per monomer): 270 M⁻¹ s⁻¹; Km (purified protein [2]; kcat per monomer): 3150 ± 1420 µM; kcat (purified protein [2]; kcat per monomer): 0.09 s⁻¹ |
| ProI, putative δ1-pyrroline-5-carboxylate (P5C) reductase from Bacillus subtilis (enzyme, Bacillus subtilis strain 168, UniProt P54552 1-278, looked up, ProI, putative P5C reductase, Bacillus subtilis strain 168; calculated mass 30.90 kDa; Cloned in pMCSG68 (His6 tag and TEV site at the N-terminus); also called P5C reductase ProI; source: E. coli BL21 Gold, purified (Ni-NTA, TEV cleavage, second Ni-NTA, SEC on Superdex 200); not shown: His6, N-terminal, cleaved) MKKIGFVGAGSMAEAMINGILQSGITKPEHIYITNRSNDERLIELKETYSVRPCRDKNEFFTHTDIIILAFKPKDAAESIDSIRPYIKDQLVISVLAGLTIETIQHYFGRKLAVIRVMPNTSAAIRKSATGFSVSTEASKNDIIAAKALLETIGDATLVEERHLDAVTAIAGSGPAYVYRYIEAMEKAAQKVGLDKETAKALILQTMAGATDMLLQSGKQPEKLRKEITSPGGTTEAGLRALQDSRFEEAIIHCIEETAKRSAEIKEQFAGAALERHS |  | 51.8 ± 2.8 µM | 0.14 s⁻¹ | 2600 M⁻¹ s⁻¹ | 2 | Km (purified protein [4]; kcat per monomer): 1,810 ± 480 μM; kcat (purified protein [4]; kcat per monomer): 0.28 s⁻¹; kcat/Km (purified protein [4]; kcat per monomer): 150 M⁻¹ s⁻¹; Km (purified protein [2]): 203 ± 30 µM |
| ProH, putative δ1-pyrroline-5-carboxylate (P5C) reductase from Bacillus subtilis (enzyme, Bacillus subtilis strain 168, UniProt P0CI77 1-297, looked up, ProH, putative P5C reductase, Bacillus subtilis strain 168; calculated mass 32.03 kDa; Cloned in pMCSG68 (His6 tag and TEV site at the N-terminus); also called P5C reductase ProH; source: E. coli BL21 Gold, purified (Ni-NTA, TEV cleavage, second Ni-NTA, SEC on Superdex 200); not shown: His6, N-terminal, cleaved) MRTKKRTKEMLPIFDQKKVAFIGAGSMAEGMISGIVRANKIPKQNICVTNRSNTERLTELELQYGIKGALPNQLCIEDMDVLILAMKPKDAENALSSLKSRIQPHQLILSVLAGITTSFIEQSLLNEQPVVRVMPNTSSMIGASATAIALGKYVSEDLKKLAEALLGCMGEVYTIQENQMDIFTGIAGSGPAYFYYLMEFIEKTGEEAGLDKQLSRSIGAQTLLGAAKMLMETGEHPEILRDNITSPNGTTAAGLQALKKSGGGEAISQAIKHAAKRSKEISEDIEKTAAPLSGVIK |  |  |  |  | 2 |  |
| ProH (Bacillus subtilis subsp. subtilis str. 168) (protein, full-length; pMCSG68, N-terminal His6-TEV tag removed; E. coli BL21 Gold; homodimer by SAXS) MRTKKRTKEMLPIFDQKKVAFIGAGSMAEGMISGIVRANKIPKQNICVTNRSNTERLTELELQYGIKGALPNQLCIEDMDVLILAMKPKDAENALSSLKSRIQPHQLILSVLAGITTSFIEQSLLNEQPVVRVMPNTSSMIGASATAIALGKYVSEDLKKLAEALLGCMGEVYTIQENQMDIFTGIAGSGPAYFYYLMEFIEKTGEEAGLDKQLSRSIGAQTLLGAAKMLMETGEHPEILRDNITSPNGTTAAGLQA |  | 13.6 ± 2.6 µM | 814 s⁻¹ | 6.3e+07 M⁻¹ s⁻¹ |  | Km (purified protein [4]): 786 ± 36 µM |
